# Experiment: soluble on expression in E. coli; label from the status in PepcDB or PDB records
row,Sequence,soluble on expression in E. coli
1,MRILVSNDDGIFSPGIKALGLAMRALGEVFVVAPDMEQSAVGHGITVRRPLRFKHTQSAGFGEIPAYRVDGTPADCVVLGVHLLGRPDLVVSGINLGVNLGLDLTHSGTVAAALEGASLGIPSIAFSLDTSGEVLDFQEAARWALAIARAVGERGLPPGVLLNVNFPASRPKGLLVTRLSTHRFEDQVVERLDPEGKPYYWIAGTPAGEEEEGTDLWAVRRGYVSVTPVSLDLTAHGFLEALSGLLEGVAP,soluble
2,MRIQFEIKESLINILDQLMHSDFWATEIKEDESGKKIIKIKDLAYNLEAVAEVMGNEIFIRTALSKYTYRIYEVKGECWCEYVGAYRGFLEQKLLPIITPKENLLECEVLDSSILGGKQKTLREYAEDNLKLKKFREQNFGNNGFSKADHPRRVYDEFIKEDFIPEDKKGHSLNITKSAN,not soluble
3,MRIRLFAFCLLLGGCQSQLPPLPDWQSPEGRDDPQTGRIVELRSGVTLSPQQLVARLAAAPRVIVGEKHDNPDHHAVELWLAQALGEYRAQGSLLLEMLDPGQQPRVDAVRAQLGNGKPVANLEEALDWQKGWDWTQYGPLVSWAVAQPAPLLAANLQRSEIMRIYRERPPLPGTASRRDSVRLPLLAQIRESHCGMLPDDQLPAMLAVQQQRDRRMAERLRDAPRPAMLVAGSFHARRDLGVPVHLRDLGAEKGTQVLMLVEAGQAVTTREADYAWYTPAQPDKDYCAEMKKARLEHHHHHH,not soluble
4,MRISLKQLNVFTVIAQEKTMTKAAERLYITKPAVSLSLSELEKNLGYKVFDRVNNRLVLNSEGRQLLPLADELLERAEVIEHQFATDSQLTGSLNIGASDTIGNHIAPVLLSKFQQQYPCDIQQLFISNTAQIINRLLEFQLDIGLVEGKAHHPKLNMIEWRRDDMYLVCSPSHPLATKAQVTLDDLEHSTWLLREEGSGSREYFINHIAANLNDWHESLQLHTTEAIINCCAENMGLACLSQLAAQNAINDGRLVKLAYNKTLARQYWLLVHKEKYQTPLLQYFMNFIQQK,not soluble
5,MRIVEEMVGKEVLDSSAKVIGKVKDVEVDIESQAIESLVLGKGGISEGLGLSKGETIVPYEMVKKIGDKILLKGPEE,not soluble
6,MRIVVTRPQRSGERTAAKLEALGHAPVLLPLFHPIHHGERATSALSDPAGAIAVTSAEALRALATCEEQLAPYLSKPLFAVGGATAEAAQETGFEQIFTASGDALGLTVLVKQHRAFLTEEEPLLYLAGRPRGSVFEEGLAAAGIPFRTVDCYEMLPSDISENTLETTLLDTTADMVLLYSSEAARAFFHHVSADKYVTALAATKFICISRNVLFLVPEIFRANAKAAEEPSEAAMFELLHHNSGTLEHHHHHH,soluble
7,MRKAAVIGGSLGGLFAANLLLRAGWDVHVHERVHDELDGRGAGIVTHPELLDVLRRIGVAPTESIGIEVARRVTLDLDGSVLASRALPQLLTAWGRLFSILRTRFPAERYHRGQALESLEQDERRALLRFADGARAEVDLVVAADGLRSTLRQALLPQARPAYAGYVAWRGLVDEASLSERTRRELCPYFAFGLPAHEQMIAYPVAGTGSGAQDAARRFNFVWYRPADEHTTFRDMVTDAQGQAWMDGIPPPLIRPEIVAQARQAAAQVLAPQFGEVVAKTANLFFQPIFDLESPRLALGRVALLGDAAFVARPHCGMGVTKAAGDARALAYALAGTPDIGAALQAYEDERLPFGKFIVGHARDLGRYMQAQLRDDAEREMAERYRTPEAIMRETAVAPAWRLEHHHHHH,not soluble
8,MRKEKIRLEYMLKAGSGNIVWSIISTPSGLETWFADKVIFKDKVFTFYWGKTETRQAEVTNFRVNSFIRFRWLDDEDPKAYFELKMVYNELTSDYMLEVIDWAAPDEVEDTKELWDSEIEKLKRVSGLLEHHHHHH,soluble
9,MRKIIHVDMDCFFAAVEMRDNPALRDIPIAIGGSRERRGVISTANYPARKFGVRSAMPTGMALKLCPHLTLLPGRFDAYKEASNHIREIFSRYTSRIEPLSLDEAYLDVTDSVHCHGSATLIAQEIRQTIFNELQLTASAGVAPVKFLAKIASDMNKPNGQFVITPAEVPAFLQTLPLAKIPGVGKVSAAKLEAMGLRTCGDVQKCDLVMLLKRFGKFGRILWERSQGIDERDVNSERLRKSVGVERTMAEDIHHWSECEAIIERLYPELERRLAKVKPDLLIARQGVKLKFDDFQQTTQEHVWPRLNKADLIATARKTWDERRGGRGVRLVGLHVTLLDPQMERQLVLGL,soluble
10,MRKIVLFGDSITAGYLDEAVSPVLVDLVKRDIAAMGLEEVAVINAGMPGDTTEDGLKRLNKEVLIEKPDEVVIFFGANDASLDRNITVATFRENLETMIHEIGSEKVILITPPYADSGRRPERPQTRIKELVKVAQEVGAAHNLPVIDLYKAMTVYPGTDEFLQADGLHFSQVGYELLGALIVREIKGRLKPKQA,soluble

# — the DeepSol protein solubility set
